Biological target: T1, SPOP28–359 (Homo sapiens, UniProt O43791)
T1 construct: A plasmid encoding His–SUMO–SPOP human residues 28 to 359; His-SUMO (N, cleaved yes); made in house; host or cells: E. coli Rosetta BL-21(DE3)
Test: Competition fluorescence anisotropy, displacement of f-Puc from oligomeric SPOP28–359
Assay type: binding
Conditions: competition FA; Fig. 5B and Table S4
From the text: An Escherichia coli codon-optimized DNA sequence encoding amino acids 205 to 283 of the human Pdx1 sequence (Pdx1-C) in the multiple cloning site of pET49b(+) was purchased from GeneArt (Thermo Fisher). The pET49b(+) backbone encodes for N-terminal glutathione S-transferase and 6X His tags, followed by a 3C protease recognition motif. In all experiments described herein, a mutant containing an exogenous tryptophan at the N terminus of the human Pdx1-C sequence was used for the purposes of quantitation. Mutations in Pdx1-C were generated by Q5 site-directed mutagenesis (New England Biolabs) with primers designed on NEBbasechanger.com according to the manufacturer protocol. […]
All FA experiments were conducted in 50 mM sodium phosphate, pH 6.5, 50 mM sodium chloride, 5 mM DTT, 1% BSA, and 0.01% Triton X-100. In all experiments, the source of fluorescence signal was f-Puc purchased from GenScript, at a final concentration of 40 nM. […] The fluorescence polarization of each well was measured (from which FA was calculated) using either a TECAN Infinite M1000 Pro or BioTek Synergy 4 fluorometer. […] FA data points were fit to a complete competitive binding model ([23]) to determine dissociation constants using in-house Python scripts (see Quantification and statistical analysis). […]

T1 sequence (O43791 28-359): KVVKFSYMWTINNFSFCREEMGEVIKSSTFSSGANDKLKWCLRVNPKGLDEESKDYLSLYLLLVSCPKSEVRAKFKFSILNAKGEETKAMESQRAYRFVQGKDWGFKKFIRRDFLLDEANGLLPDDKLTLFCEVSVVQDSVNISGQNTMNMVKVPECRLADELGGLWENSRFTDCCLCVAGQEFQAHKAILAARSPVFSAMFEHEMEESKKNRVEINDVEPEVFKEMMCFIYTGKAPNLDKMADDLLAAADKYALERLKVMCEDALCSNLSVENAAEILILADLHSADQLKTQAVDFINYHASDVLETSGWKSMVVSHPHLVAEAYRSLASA

Pdx1: full-length human Pdx1 (amino acids 1-283) with a C-terminal GFP tag
enhancement in binding affinity to oligomeric SPOP28–359 compared with SPOP–MATH: ~10 fold
